PMC6797079

B1: sodium/iodide symporter (NIS), wild type, cerulean- or citrine-tagged [human] / itself (parent)
chain: MEAVETGERPTFGAWDYGVFALMLLVSTGIGLWVGLARGGQRSAEDFFTGGRRLAALPVGLSLSASFMSAVQVLGVPSEAYRYGLKFLWMCLGQLLNSVLTALLFMPVFYRLGLTSTYEYLEMRFSRAVRLCGTLQYIVATMLYTGIVIYAPALILNQVTGLDIWASLLSTGIICTFYTAVGGMKAVVWTDVFQVVVMLSGFWVVLARGVMLVGGPRQVLTLAQNHSRINLMDFNPDPRSRYTFWTFVVGGTLVWLSMYGVNQAQVQRYVACRTEKQAKLALLINQVGLFLIVSSAACCGIVMFVFYTDCDPLLLGRISAPDQYMPLLVLDIFEDLPGVPGLFLACAYSGTLSTASTSINAMAAVTVEDLIKPRLRSLAPRKLVIISKGLSLIYGSACLTVAALSSLLGGGVLQGSFTVMGVISGPLLGAFILGMFLPACNTPGVLAGLGAGLALSLWVALGATLYPPSEQTMRVLPSSAARCVALSVNASGLLDPALLPANDSSRAPSSGMDASRPALADSFYAISYLYYGALGTLTTVLCGALISCLTGPTKRSTLAPGLLWWDLARQTASVAPKEEVAILDDNLVKGPEELPTGNKKPPGFLPTNEDRLFFLGQKELEGAGSWTPCVGHDGGRDQQETNL

Variants of: B1
Assay: FRET
Settings: with itself, n = 2, minimum of 20 cells analyzed in each n, read off a plot

response (arbitrary units) (HeLa cells, parent: 20)	response (arbitrary units) (SW1736 cells, parent: 0)	Variant
120	30	chain 1 A525F
0	-70	chain 1 D237A
